Assay results as given in article PMC6478609.

Molecular target: TRPM8FA with the Ala805→Gly mutation (TRPM8_(FA_AG)) (collared flycatcher Ficedula albicollis) (UniProt U3JD03)
Assay: cryo-EM structure

Substance: TRPM8FA with the Ala805→Gly mutation (TRPM8_(FA_AG)) (from UniProt U3JD03 1-1115) (natural protein)
- stoichiometry N: 4
